{"source": "paper PMC3870659", "molecular_target": "integrin α4β7 on freshly isolated human primary B cells (human (endogenous in primary B cells)) (UniProt P13612)", "sequence (P13612 34-1032, chain 1 of 2)": "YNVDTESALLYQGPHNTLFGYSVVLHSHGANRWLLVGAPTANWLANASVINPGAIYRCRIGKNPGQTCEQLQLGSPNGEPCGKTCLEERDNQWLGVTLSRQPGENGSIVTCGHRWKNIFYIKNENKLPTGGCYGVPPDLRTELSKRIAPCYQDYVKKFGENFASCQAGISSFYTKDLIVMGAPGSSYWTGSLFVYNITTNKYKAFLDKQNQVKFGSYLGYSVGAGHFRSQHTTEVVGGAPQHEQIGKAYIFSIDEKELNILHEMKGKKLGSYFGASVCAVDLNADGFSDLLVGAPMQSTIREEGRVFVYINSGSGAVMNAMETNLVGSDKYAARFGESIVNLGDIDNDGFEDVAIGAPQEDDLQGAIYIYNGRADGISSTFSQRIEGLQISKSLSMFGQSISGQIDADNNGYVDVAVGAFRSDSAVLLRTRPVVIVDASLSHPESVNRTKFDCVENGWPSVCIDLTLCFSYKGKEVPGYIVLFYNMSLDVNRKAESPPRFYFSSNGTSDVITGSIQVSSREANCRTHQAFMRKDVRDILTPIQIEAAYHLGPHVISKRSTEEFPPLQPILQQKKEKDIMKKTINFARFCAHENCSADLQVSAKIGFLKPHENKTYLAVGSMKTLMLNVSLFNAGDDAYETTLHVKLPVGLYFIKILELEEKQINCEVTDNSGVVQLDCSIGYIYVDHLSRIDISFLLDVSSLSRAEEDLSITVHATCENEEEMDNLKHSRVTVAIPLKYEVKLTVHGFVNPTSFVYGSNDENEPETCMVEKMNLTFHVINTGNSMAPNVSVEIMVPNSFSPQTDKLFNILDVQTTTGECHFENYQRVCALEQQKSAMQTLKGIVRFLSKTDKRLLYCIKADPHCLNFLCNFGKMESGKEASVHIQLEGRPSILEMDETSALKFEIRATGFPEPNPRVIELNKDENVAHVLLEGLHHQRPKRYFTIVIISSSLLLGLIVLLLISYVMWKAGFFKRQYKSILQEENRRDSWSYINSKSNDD", "sequence (P26010 20-798, chain 2 of 2, further chain)": "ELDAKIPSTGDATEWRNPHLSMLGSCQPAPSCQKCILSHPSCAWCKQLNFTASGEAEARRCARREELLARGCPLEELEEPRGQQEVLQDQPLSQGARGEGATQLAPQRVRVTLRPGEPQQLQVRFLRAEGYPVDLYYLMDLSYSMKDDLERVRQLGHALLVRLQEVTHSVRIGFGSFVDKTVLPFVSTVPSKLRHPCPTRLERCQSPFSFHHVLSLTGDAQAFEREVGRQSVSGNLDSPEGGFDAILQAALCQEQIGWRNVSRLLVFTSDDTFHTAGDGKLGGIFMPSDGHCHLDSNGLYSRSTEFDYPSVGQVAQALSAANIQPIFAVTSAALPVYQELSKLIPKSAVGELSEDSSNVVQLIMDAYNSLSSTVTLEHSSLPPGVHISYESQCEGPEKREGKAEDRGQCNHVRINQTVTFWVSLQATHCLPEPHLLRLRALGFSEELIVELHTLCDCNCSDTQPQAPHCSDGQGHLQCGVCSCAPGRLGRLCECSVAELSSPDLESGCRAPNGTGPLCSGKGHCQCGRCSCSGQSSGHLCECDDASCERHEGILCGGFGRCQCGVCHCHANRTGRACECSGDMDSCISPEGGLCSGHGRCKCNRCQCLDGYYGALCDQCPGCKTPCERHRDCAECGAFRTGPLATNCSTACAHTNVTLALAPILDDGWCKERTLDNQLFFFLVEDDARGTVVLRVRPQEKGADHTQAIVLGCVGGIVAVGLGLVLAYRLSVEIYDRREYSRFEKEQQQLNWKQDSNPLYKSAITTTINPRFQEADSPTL"}
{"substance": "R66M gp120 (HIV-1 envelope protein gp120 of the early viral isolate R66M, subtype A/C) (natural protein)", "values": [{"measurement": "FCRL4 mRNA (microarray) in anti-IgM + CpG stimulated B cells, 6 h with gp120", "value": 8, "unit": "fold"}]}
